Here are results for 1 molecule from patent publication US20220041709A1 (MITSUBISHI TANABE PHARMA, published 2022).

For assay [1], the target named is T1, Human IL-33 (human, UniProt O95760 112-270, limits assumed).
T1 construct: also called NF-HEV
T1 sequence (looked up): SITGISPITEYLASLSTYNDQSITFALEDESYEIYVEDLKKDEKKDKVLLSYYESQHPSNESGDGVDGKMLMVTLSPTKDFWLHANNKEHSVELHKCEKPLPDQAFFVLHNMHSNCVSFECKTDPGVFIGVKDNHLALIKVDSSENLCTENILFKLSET
Put plainly: ELISA on plate-coated human IL-33, HRP anti-human IgG detection; 10 mg/mL formulation stored 1 year at 2 to 8 C. Here is the method: (§1) Compositions of 10 mg/mL of each human anti-IL-33 monoclonal antibody (A10-1C04, A23-1A05, A25-2C02, A25-3H04 or A26-1F02) were prepared with 10 mM histidine/pH 6/0.02% (w/v) polysorbate 80/3.6% (w/v) sorbitol, and then each filled into a glass vial and sealed with a halogenated butyl rubber stopper, and stored for 1, 2 and 3 years at a temperature of 2 to 8° C. as a long-term stability test. The presence or absence of aggregation was confirmed by visual examination for 5 seconds each under a 2000 to 3750 Lux fluorescent lamp, against white and black board backgrounds. The binding activity was evaluated by the following method. Human IL-33 was added to a 96-well plate and allowed to form a solid phase overnight. BSA was used for blocking, and then the sample solution was added to each well, reacted with HRP-labeled anti-human IgG antibody and colored with TMB. The absorbance at 450 nm and 650 nm was then measured with a plate reader (Molecular Devices Corp.) to determine the EC50 value. The EC50 value of the standard solution was also determined in the same manner, and the ratio was calculated.

Assay [2] has as its target T1, Human IL-33. Kind of assay: ELISA on plate-coated human IL-33, HRP anti-human IgG detection; 150 mg/mL formulation stored 3 months at 2 to 8 C. The protocol:
as §1, with “monoclonal” for “Compositions of 10 mg/mL of each human anti-IL-33 monoclonal”, “and stored for 1, 2 and 3 years at a temperature of 2 to” left out
(§2) Compositions of 150 mg/mL of each human anti-IL-33 monoclonal antibody (A10-1C04, A23-1A05, A25-2C02, A25-3H04 or A26-1F02) were prepared with 10 mM histidine/pH 6/0.02% (w/v) polysorbate 80/4.0% (w/v) sorbitol, and then each was filled into a glass vial and sealed with a halogenated butyl rubber stopper, and stored for 3 and 6 months at a temperature of 2 to 8° C. as a long-term stability test. […]

The target in assay [3] is T1, Human IL-33. Put plainly: ELISA on plate-coated human IL-33, HRP anti-human IgG detection; 10 mg/mL formulation stored 3 years at 2 to 8 C. Here is the method: as §1
The target in assay [4] is T1, Human IL-33. Kind of assay: ELISA on plate-coated human IL-33, HRP anti-human IgG detection; 150 mg/mL formulation, 2 to 8 C, T0. The protocol:
The presence or absence of aggregation was confirmed by visual examination for 5 seconds each under a 2000 to 3750 Lux fluorescent lamp, against white and black board backgrounds. The binding activity was evaluated by the following method. Human IL-33 was added to a 96-well plate and allowed to form a solid phase overnight. BSA was used for blocking, and then the sample solution was added to each well, reacted with HRP-labeled anti-human IgG antibody and colored with TMB. The absorbance at 450 nm and 650 nm was then measured with a plate reader (Molecular Devices Corp.) to determine the EC50 value. The EC50 value of the standard solution was also determined in the same manner, and the ratio was calculated.
Compositions of 150 mg/mL of each human anti-IL-33 monoclonal antibody (A10-1C04, A23-1A05, A25-2C02, A25-3H04 or A26-1F02) were prepared with 10 mM histidine/pH 6/0.02% (w/v) polysorbate 80/4.0% (w/v) sorbitol, and then each was filled into a glass vial and sealed with a halogenated butyl rubber stopper, and stored for 3 and 6 months at a temperature of 2 to 8° C. as a long-term stability test. The evaluation was conducted by the same method as Example 14.

In assay [5] the target is T1, Human IL-33. Put plainly: ELISA on plate-coated human IL-33, HRP anti-human IgG detection; 150 mg/mL formulation stored 6 months at 2 to 8 C. Here is the method:
as §1, with “monoclonal” for “Compositions of 10 mg/mL of each human anti-IL-33 monoclonal”, “and stored for 1, 2 and 3 years at a temperature of 2 to” left out
as §2

The target in assay [6] is T1, Human IL-33. Put plainly: ELISA on plate-coated human IL-33, HRP anti-human IgG detection; 10 mg/mL formulation, 2 to 8 C, T0. Here is the method: as §1
Assay [7] has as its target T1, Human IL-33. Put plainly: ELISA on plate-coated human IL-33, HRP anti-human IgG detection; 10 mg/mL formulation stored 2 years at 2 to 8 C. Here is the method:
as §1

B1: human anti-IL-33 monoclonal antibody A10-1C04 (antibody, human IgG1, lambda, V domains shown)
VH: EVQLLESGGGLVQPGGSLRLSCAASGFTFSDYYMNWVRQAPGKGLEWVSSISRYSSYIYYADSVKGRFTISRDNSKNTLYLQMNSLRAEDTAVYYCARDIGGMDVWGQGTLVTVSS
VL: QSVLTQPPSASGTPGQRVTISCTGSSSNIGAVYDVHWYQQLPGTAPKLLIYRNNQRPSGVPDRFSGSKSGTSASLAISGLRSEDEADYYCQTYDSSRWVFGGGTKLTVLG
notes: Detected with anti-human IgG antibody in the ELISA
In the case of B1, the “Binding activity (ratio of EC50 to that of the standard solution)” value in the assay with Human IL-33 [1] is 110%; with Human IL-33 [2], 110%; with Human IL-33 [3], 101%; in the assay with Human IL-33 [4], 115%; with Human IL-33 [5], 100%; in the assay with Human IL-33 [6] it was 100%. In addition, the “Binding activity (ratio of EC50 to that of the standard solution)” value with Human IL-33 [7] was 101%.
